The record followed here is patent US20130034559A1 (AstraZeneca / MedImmune, published 2013).

In assay [1] the target is T1, extracellular domain of human CTLA-4 (R&D Systems, 325-CT) (human, UniProt P16410 36-161).
T1 construct: extracellular domain; Bought
T1 sequence (looked up): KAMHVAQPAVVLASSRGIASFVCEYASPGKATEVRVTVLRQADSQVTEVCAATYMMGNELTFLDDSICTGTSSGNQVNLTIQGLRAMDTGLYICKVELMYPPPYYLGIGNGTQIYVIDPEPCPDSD
Nature of the assay: ELISA, biotinylated IgG1-TM on coated ECD. As for the experimental part: (§1) ELISAs were performed to determine the cross-reactivity of the anti-B7-H1 IgG1-TM antibodies for other immune co-modulatory molecules. […] Murine cross reactivity was also investigated by coating the ECD of murine B7-H1 (R&D Systems, 1019-B7). Biotinylated anti-B7-H1 IgG1-TM diluted at 100 nM in PBS containing 3% dried milk powder, were incubated at room temperature for 2 h to allow binding. Bound biotinylated IgGs were detected with europium N1-labelled streptavidin (Perkin Elmer, 1244-360) at 0.2 ug/mL. […] Primary antibodies were incubated at 5 ug/mL in PBS containing 3% dried milk powder for 2 h at room temperature. Detection was carried out by incubating the secondary antibody anti-mouse IgG Peroxidase conjugate (Sigma, A2554) or anti-rat IgG Peroxidase conjugate (Sigma, A5795) diluted 1:5000 in PBS containing 3% dried milk powder for 1 h at room temperature and subsequent addition of TMB (Sigma, T0440). […] Non-specific binding was determined using wells coated with the IgG1 isotype control at 5 ug/mL. Cross reactivities were calculated at a percent of the specific binding to the antigen relative to human B7-H1.
A general note: ELISA stands for enzyme-linked immunosorbent assay.

The target of assay [2] is T2, extracellular domain of human CD28 (R&D Systems, 342-CD) (human, UniProt P10747 19-152).
T2 construct: extracellular domain; Bought
T2 sequence (P10747 19-152): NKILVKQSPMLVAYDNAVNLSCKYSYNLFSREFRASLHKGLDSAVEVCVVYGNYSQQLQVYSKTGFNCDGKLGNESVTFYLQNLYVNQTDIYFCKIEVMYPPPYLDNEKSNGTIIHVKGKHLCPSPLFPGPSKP
Nature of the assay: ELISA, biotinylated IgG1-TM on coated ECD. As for the experimental part: as §1

The target in assay [3] is T3, extracellular domain of human B7-H2 (R&D Systems, 165-B7) (human, UniProt O75144 19-256).
T3 construct: extracellular domain; Bought
T3 sequence (looked up): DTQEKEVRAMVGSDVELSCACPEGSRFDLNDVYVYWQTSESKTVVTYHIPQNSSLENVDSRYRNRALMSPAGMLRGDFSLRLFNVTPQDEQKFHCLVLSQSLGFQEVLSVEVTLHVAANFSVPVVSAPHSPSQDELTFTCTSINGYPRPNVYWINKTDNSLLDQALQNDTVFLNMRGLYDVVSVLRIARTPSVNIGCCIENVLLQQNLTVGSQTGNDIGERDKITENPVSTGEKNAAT
Nature of the assay: ELISA, biotinylated IgG1-TM on coated ECD. As for the experimental part:
as §1

The target in assay [4] is T4, extracellular domain of human PD-L2 (R&D Systems, 1224-PL) (human, UniProt Q9BQ51 20-220).
T4 construct: extracellular domain; Bought
T4 sequence (looked up): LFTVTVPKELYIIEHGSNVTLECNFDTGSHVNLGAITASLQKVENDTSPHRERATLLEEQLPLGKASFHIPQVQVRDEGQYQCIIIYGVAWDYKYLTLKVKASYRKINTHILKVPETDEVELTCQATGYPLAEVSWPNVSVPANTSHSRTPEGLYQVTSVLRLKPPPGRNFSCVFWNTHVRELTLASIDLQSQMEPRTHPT
The assay is described as follows: ELISA, biotinylated IgG1-TM on coated ECD. As for the experimental part: as §1

Assay [5] deals with T5, human PD-1/Fc protein (R&D Systems, catalog #1086-PD) (human, UniProt Q15116 25-170).
T5 construct: extracellular domain; Bought; not shown: Fc portion
T5 sequence (Q15116 25-170): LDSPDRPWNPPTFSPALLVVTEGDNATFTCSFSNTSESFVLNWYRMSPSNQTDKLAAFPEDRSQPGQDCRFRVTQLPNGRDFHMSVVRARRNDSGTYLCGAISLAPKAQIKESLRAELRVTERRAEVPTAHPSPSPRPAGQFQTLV
The assay is described as follows: ELISA, biotinylated IgG1-TM on coated ECD. As for the experimental part: as §1

Assay [6] has as its target T6, extracellular domain of murine B7-H1 (R&D Systems, 1019-B7) (murine, UniProt Q9EP73 19-239).
T6 construct: extracellular domain; Bought
Nature of the assay: ELISA, biotinylated IgG1-TM on coated murine B7-H1 ECD. As for the experimental part:
as §1

The target of assay [7] is T7, human B7-H1 expressed on cells (human, UniProt Q9NZQ7 19-290).
T7 construct: whole, on cells; also called PD-L1; huB7-H1
T7 sequence (Q9NZQ7 19-290): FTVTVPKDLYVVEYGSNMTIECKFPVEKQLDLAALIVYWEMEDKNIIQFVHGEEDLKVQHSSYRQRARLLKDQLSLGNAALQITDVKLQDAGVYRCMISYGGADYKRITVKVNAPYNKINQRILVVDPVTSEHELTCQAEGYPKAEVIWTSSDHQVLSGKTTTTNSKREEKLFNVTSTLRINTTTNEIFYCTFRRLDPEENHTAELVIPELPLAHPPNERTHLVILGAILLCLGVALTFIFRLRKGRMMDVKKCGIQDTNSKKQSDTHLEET
The assay is described as follows: cell ELISA: biotinylated PD-1/Fc (1.25 ug/ml) on CHO-huB7-H1 cells after hybridoma supernatant (1:5); 0% = 100% inhibition. As for the experimental part: 25000 cells/well were plated in 50 μl of media into wells of a 384-well tissue culture plate (Corning Costar, catalog #3712). Next day, 50 μl/well of diluted (1:5) hybridoma supernatant was added and plates were incubated at 4 C for 1 hour on a shaker. […] Cells were washed and fixed in 100 ul of PBS containing 3.7% formaldehyde and 3% bovine serum albumin for 20 min at room temperature. Cells were washed and incubated in 100 ul of PBS containing 0.6% H2O2 and 3% bovine serum albumin for 10 min at room temperature. Cells were washed and incubated in 50 μl of horseradish peroxidase-conjugated streptavidin diluted at 1:4000 for 30 min at 4° C. Cells were washed before signal detection.

For assay [8], the target named is T7, human B7-H1 expressed on cells. The assay is described as follows: FACS, 1 µg/ml antibody, anti-CD3-activated human T cells. As for the experimental part: 96-well high binding plates were incubated with 100 μl/well of anti-CD3 antibody diluted at 1 ug/ml in PBS (OKT3 clone, eBioscience, catalog #160037) at 4 C overnight. Human T cells were isolated from frozen leukopack using T cell enrichment kit (StemCell Technologies, catalog #19051). Anti-CD3 mAb coated plates were washed with PBS and purified T cells were added in 200 ul of ICM media at 360000 cells/well and cultured for 72 hours. T cells were then harvested, washed in FACS buffer and mixed with diluted purified anti-B7-H1 antibodies or irrelevant human IgG2 or IgG4 antibodies at final concentration of 1 ug/ml in 96-well V-bottom assay plate (50 ul/well). […] Cells were incubated for 30 min at 4° C. before being washed again with FACS buffer and being read on a FACSCalibur instrument. Live lymphocyte population was selected for analysis based on forward and side scatter as well as negative staining for 7-AAD.
(In general: A flow cytometer gives signals particle by particle.)

Assay [9] concerns the target T8, human B7-DC on 293T cells (human, UniProt Q9BQ51 20-273).
T8 construct: whole, on cells; also called PD-L2
T8 sequence (looked up): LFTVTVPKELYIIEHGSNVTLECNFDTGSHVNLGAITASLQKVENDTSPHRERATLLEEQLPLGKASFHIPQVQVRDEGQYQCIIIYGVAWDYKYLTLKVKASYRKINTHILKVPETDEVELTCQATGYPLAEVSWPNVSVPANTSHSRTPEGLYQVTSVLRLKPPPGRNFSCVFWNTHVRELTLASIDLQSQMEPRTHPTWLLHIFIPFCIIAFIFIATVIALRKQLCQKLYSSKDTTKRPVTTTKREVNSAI
Nature of the assay: FACS, 5 µg/ml antibody, 293T cells transfected with human B7-DC. As for the experimental part:
(§2) The ability of the purified antibodies to bind to human B7-H1, B7-DC, mouse B7H1 and cynomolgus monkey B7-H1 was determined by FACS analysis. […] Mouse J558 cells expressing mouse B7-H1 were obtained from ATCC (catalog #TIB-6). Cells were resuspended in PBS containing 2% FBS (FACS buffer) and seeded at 50000 cells/well into V-bottomed plates. Anti-B7-H1 and isotype control antibodies diluted in FACS buffer were added at a final concentration of 5 μg/ml and plates were incubated for 1 h at 4° C. […] Mouse anti-human B7-DC (PD-L2) antibody (R&D systems cat #MAB1224, detected with goat anti-mouse Fc Cy5, Jackson Immunoresearch) was used as a positive control for B7-DC expression. PE-conjugated rat anti-mouse B7-H1 antibody (eBioscience, clone M1H5, detected with goat anti-rat Fc Cy5, Jackson Immunoresearch) was used as a positive control for mouse B7-H1 expression.

Assay [10] addresses T7, human B7-H1 expressed on cells. Nature of the assay: FACS competition: inhibition of biotinylated PD-1/Fc (10 ug/ml) binding to human B7-H1 on ES-2 cells. As for the experimental part:
Briefly, 50000 cells/well were plated in 50 μl of PBS into wells of a 384-well tissue culture plate (Corning Costar, catalog #3712). Next, 50 μl/well of a diluted monoclonal antibody was added at final concentration of […], 0.00016 nM and plates were incubated at 4 C for 1 hour. […] Cells were washed once and 100 μl/well of Cy5-conjugated streptavidin was added and plates were incubated at 4 C for 15 min before being washed again with PBS containing 2% FCS and being read on a FACSCalibur instrument.

The target of assay [11] is T9, cynomolgus monkey B7-H1 expressed on cells (cynomolgus monkey, UniProt G7PSE7 19-290).
T9 construct: whole, on cells; also called cyno B7-H1; cynomologus B7-H1
T9 sequence (G7PSE7 entry or part of it): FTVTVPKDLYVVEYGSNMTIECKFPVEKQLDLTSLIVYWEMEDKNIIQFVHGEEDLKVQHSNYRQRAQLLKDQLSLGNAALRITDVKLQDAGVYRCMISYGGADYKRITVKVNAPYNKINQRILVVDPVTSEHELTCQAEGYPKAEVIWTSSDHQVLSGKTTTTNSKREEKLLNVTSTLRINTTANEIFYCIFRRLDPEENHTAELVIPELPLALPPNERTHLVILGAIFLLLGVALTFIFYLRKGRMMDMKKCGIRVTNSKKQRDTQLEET
Nature of the assay: FMAT, hybridoma supernatant, 293T cells expressing cynomolgus monkey B7-H1. As for the experimental part: (§3) Immediately after plating, 10 μl/well of hybridoma supernatants were added and plates incubated for 1.5 hr at room temperature.

For assay [12], the target named is T9, cynomolgus monkey B7-H1 expressed on …. Nature of the assay: FACS, 1 µg/ml antibody, anti-CD3-activated cynomolgus monkey T cells. As for the experimental part:
For activation of cynomolgus monkey T cells 96-well high binding plates were incubated with 100 μl/well of goat anti-mouse IgG Fc antibody diluted at 1 ug/ml in PBS at 4 C overnight. […] Cynomolgus monkey PBMC were isolated from peripheral blood (Bioreclamation, catalog #CYNWBCPT). Anti-CD3 mAb coated plates were washed with PBS and isolated PBMC were added in 200 ul of ICM media at ˜200000 cells/well and cultured for 72 hours. Cells were then harvested, washed in FACS buffer and mixed with diluted purified anti-B7-H1 antibodies or irrelevant human IgG2 or IgG4 antibodies at a final concentration of 1 ug/ml in 96-well V-bottom assay plate (50 ul/well). […] Cells were incubated for 1 hour at 4° C. before being washed again with FACS buffer and being read on a FACSCalibur instrument. Monkey T lymphocyte population was selected for analysis based on forward and side scatter as well as positive staining for CD3 marker and negative staining for 7-AAD.

The target of assay [13] is T7, human B7-H1 expressed on cells. The assay is described as follows: FACS, 5 µg/ml antibody, 293T cells transfected with human B7-H1. As for the experimental part: as §2
Assay [14] concerns the target T10, mouse B7-H1 on J558 cells (mouse, UniProt Q9EP73 19-290).
T10 construct: whole, on cells
The assay is described as follows: FACS, 5 µg/ml antibody, J558 cells expressing mouse B7-H1. As for the experimental part: as §2

Assay [15] deals with T8, human B7-DC on 293T cells. The assay is described as follows: FACS on 293T cells transfected with human B7-DC. As for the experimental part: as §2
Assay [16] has as its target T10, mouse B7-H1 on J558 cells. The assay is described as follows: FACS on J558 cells expressing mouse B7-H1. As for the experimental part: as §2
The target of assay [17] is T7, human B7-H1 expressed on cells. The assay is described as follows: FMAT, hybridoma supernatant, 293T cells expressing human B7-H1. As for the experimental part:
as §3

T10 sequence (Q9EP73 19-290): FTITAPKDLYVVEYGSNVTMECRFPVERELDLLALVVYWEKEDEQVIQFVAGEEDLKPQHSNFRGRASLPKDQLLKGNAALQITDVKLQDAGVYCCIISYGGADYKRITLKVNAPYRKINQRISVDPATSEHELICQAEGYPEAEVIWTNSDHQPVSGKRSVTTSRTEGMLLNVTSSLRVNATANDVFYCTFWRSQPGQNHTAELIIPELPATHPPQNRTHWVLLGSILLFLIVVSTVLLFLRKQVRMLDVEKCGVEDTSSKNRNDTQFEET
T6 sequence (Q9EP73 19-239): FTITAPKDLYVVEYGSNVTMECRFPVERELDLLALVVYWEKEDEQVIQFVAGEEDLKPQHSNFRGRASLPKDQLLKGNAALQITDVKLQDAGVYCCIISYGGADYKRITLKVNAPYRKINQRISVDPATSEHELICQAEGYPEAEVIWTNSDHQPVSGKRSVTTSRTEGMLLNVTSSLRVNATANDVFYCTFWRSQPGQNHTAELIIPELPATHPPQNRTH

B1: 2.9D10 in the IgG1-TM format (antibody, V domains shown)
VH: EVQLVESGGGLVQPGGSLRLSCAASGFTFSSYWMSWVRQAPGKGLEWVANIKQDGGEQYYVDSVKGRFTISRDNAKNSLYLQMNSLRAEDTAVYYCARDWNYGYYDMDVWGQGTTVTVSS
VL: EIVLTQSPGTLSLSPGERATLSCRASQSVSSNYLAWFQQKPGQAPRLLIFGTSSRATGIPDRFSGSGSGTDFTLTISRLEPEDFAVYYCQQYGSSIFTFGPGTKVDIK
notes: Recombinant human IgG1-TM (IgG1 with L234F, L235E, P331S), kappa; also called 2.9D10 IgG1-TM
For the molecule B1, the binding result in assay [1], in assay [2], in assay [3], in assay [4], in assay [5] and in [6] was “no binding (tested: 100 nM)” in each case.

B2: 3.18G1 (antibody, V domains shown)
VH: EVQLLESGGDLVQPGGSLRLSCAASGFTFNSYAMSWVRQAPGKGLEWVSTISGSGGFTFSADSVKGRFTISRDNSKNTLFLQMNSLRVEDSAVYSCAKVLVGFNNGCWDYWGQGTLVTVSS
VL: SYVLTQPPSVSVAPGQTARITCGGNNIGSKSVHWYQQKPGQAPVLVVYDDSDRPSGIPERFSGSNSGNTATLTISRVEAGDEADYYCQVWDSSNDHVVFGGGTKLTVL
notes: also called mAb 3.18G1
As usually defined, the IC50 is the point on the concentration scale where inhibition reaches its midpoint. As for B2, the “PD1-Fc binding to CHO-huB7-H1 cells (% of max)” value in [7] was 5 % of max. For the same molecule, the geo mean in [8] stood at 45; in assay [9] it was 9.7; in assay [12], 94.6; in assay [13], 1540; in [14], 3.2. In addition, the IC50 in assay [10] was determined as 0.14 nM. Besides, the figures for the Count in assay [11] and in assay [17] were 66 and 21, respectively. Further, the figures for the FL1 in assay [11] and in assay [17] were 10300 and 10900, respectively. For the same molecule, the results for the “FL1 × count” value in assay [11] and in assay [17] were 682000 and 228000, respectively. Besides, the binding result in assay [15] and in assay [16] was “no binding (tested: 5 µg/ml)” throughout.
